The binders below were run against GRID2IP_1, A4D2P6 (assay: holdup assay). Conditions: plain residues with an end cap or a label only (N-terminal biotin on a linker: ado-ado).
Set-up: key: below the threshold = too weak to quantify, mostly under pKd 3.1 to 4

GRID2IP_1, A4D2P6, sequence (A4D2P6 1-87): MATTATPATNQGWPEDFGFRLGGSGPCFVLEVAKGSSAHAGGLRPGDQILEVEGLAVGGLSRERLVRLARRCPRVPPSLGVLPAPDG

Binder	pKd
HYPASPDSWV [CTNND2, Q9UQB3]	below the threshold
LLQEEWETVM [PTH1R, Q03431]	below the threshold

Each binder was assayed against PDZRN4_1, Q6ZMN7 (assay: holdup assay). Conditions: plain residues with an end cap or a label only (N-terminal biotin on a linker: ado-ado).
PDZRN4_1, Q6ZMN7, sequence (Q6ZMN7 213-318): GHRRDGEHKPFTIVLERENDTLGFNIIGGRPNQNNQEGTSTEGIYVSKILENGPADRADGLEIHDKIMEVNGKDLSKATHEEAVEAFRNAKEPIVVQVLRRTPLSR
Set-up: key: below the threshold = too weak to quantify, mostly under pKd 3.1 to 4

Binder	pKd
HYPASPDSWV [CTNND2, Q9UQB3]	4.14
LLQEEWETVM [PTH1R, Q03431]	4.2

Each binder was assayed against TJP1_3, Q07157 (assay: holdup assay). Conditions: plain residues with an end cap or a label only (N-terminal biotin on a linker: ado-ado).
TJP1_3, Q07157, sequence (Q07157 416-512): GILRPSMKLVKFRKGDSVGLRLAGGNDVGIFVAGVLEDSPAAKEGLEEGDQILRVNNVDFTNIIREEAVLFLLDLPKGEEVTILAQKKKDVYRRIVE
Set-up: key: below the threshold = too weak to quantify, mostly under pKd 3.1 to 4

Binder	pKd
HYPASPDSWV [CTNND2, Q9UQB3]	3.81
LLQEEWETVM [PTH1R, Q03431]	below the threshold

The binders below were run against AHNAK1, Q09666 (assay: holdup assay). Conditions: plain residues with an end cap or a label only (N-terminal biotin on a linker: ado-ado).
AHNAK1, Q09666, sequence (Q09666 4-100): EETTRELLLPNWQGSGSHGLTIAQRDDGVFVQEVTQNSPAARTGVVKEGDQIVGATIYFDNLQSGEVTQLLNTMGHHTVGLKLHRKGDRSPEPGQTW
Set-up: key: below the threshold = too weak to quantify, mostly under pKd 3.1 to 4

Binder	pKd
HYPASPDSWV [CTNND2, Q9UQB3]	below the threshold
LLQEEWETVM [PTH1R, Q03431]	below the threshold

What follows are binders tested against T1, PDZD7_3, Q9H5P4 (assay: holdup assay). Conditions: plain residues with an end cap or a label only (N-terminal biotin on a linker: ado-ado).
T1 sequence (Q9H5P4 857-944, limits assumed, looked up): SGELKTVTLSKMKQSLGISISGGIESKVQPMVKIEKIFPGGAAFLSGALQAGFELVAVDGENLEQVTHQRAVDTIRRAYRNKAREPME
Set-up: key: below the threshold = too weak to quantify, mostly under pKd 3.1 to 4

Binder	pKd
HYPASPDSWV [CTNND2, Q9UQB3]	4.3
LLQEEWETVM [PTH1R, Q03431]	4.45

What follows are binders tested against T2, PTPN13_1, Q12923 (assay: holdup assay). Conditions: plain residues with an end cap or a label only (N-terminal biotin on a linker: ado-ado).
T2 sequence (Q12923 1088-1188, limits assumed, looked up): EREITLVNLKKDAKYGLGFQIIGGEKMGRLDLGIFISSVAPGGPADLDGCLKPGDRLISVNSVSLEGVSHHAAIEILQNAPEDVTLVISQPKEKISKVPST
Set-up: key: below the threshold = too weak to quantify, mostly under pKd 3.1 to 4

Binder	pKd
HYPASPDSWV [CTNND2, Q9UQB3]	below the threshold
LLQEEWETVM [PTH1R, Q03431]	below the threshold

The binders below were run against FRMPD2_3, Q68DX3 (assay: holdup assay). Conditions: plain residues with an end cap or a label only (N-terminal biotin on a linker: ado-ado).
FRMPD2_3, Q68DX3, sequence (Q68DX3 1073-1166): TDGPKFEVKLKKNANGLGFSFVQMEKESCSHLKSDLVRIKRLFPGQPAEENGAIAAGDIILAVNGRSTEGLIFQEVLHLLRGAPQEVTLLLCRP
Set-up: key: below the threshold = too weak to quantify, mostly under pKd 3.1 to 4

Binder	pKd
HYPASPDSWV [CTNND2, Q9UQB3]	below the threshold
LLQEEWETVM [PTH1R, Q03431]	below the threshold

Each binder was assayed against T3, DFNB31_1, Q9P202 (assay: holdup assay). Conditions: plain residues with an end cap or a label only (N-terminal biotin on a linker: ado-ado).
T3 sequence (Q9P202 135-233, limits assumed, looked up): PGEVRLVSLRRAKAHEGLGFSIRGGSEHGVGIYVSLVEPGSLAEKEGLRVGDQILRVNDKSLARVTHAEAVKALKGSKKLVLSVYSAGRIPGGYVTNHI
Set-up: key: below the threshold = too weak to quantify, mostly under pKd 3.1 to 4

Binder	pKd
HYPASPDSWV [CTNND2, Q9UQB3]	4.34
LLQEEWETVM [PTH1R, Q03431]	3.84

The binders below were run against NHERF2_2, Q15599 (assay: holdup assay). Conditions: plain residues with an end cap or a label only (N-terminal biotin on a linker: ado-ado).
NHERF2_2, Q15599, sequence (Q15599 142-238): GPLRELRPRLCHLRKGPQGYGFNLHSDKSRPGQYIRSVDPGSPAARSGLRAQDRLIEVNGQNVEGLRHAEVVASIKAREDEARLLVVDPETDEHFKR
Set-up: key: below the threshold = too weak to quantify, mostly under pKd 3.1 to 4

Binder	pKd
HYPASPDSWV [CTNND2, Q9UQB3]	3.84
LLQEEWETVM [PTH1R, Q03431]	5.14

These binders were tested against T4, MPP6, Q9NZW5 (assay: holdup assay). Conditions: plain residues with an end cap or a label only (N-terminal biotin on a linker: ado-ado).
T4 sequence (Q9NZW5 125-219, limits assumed, looked up): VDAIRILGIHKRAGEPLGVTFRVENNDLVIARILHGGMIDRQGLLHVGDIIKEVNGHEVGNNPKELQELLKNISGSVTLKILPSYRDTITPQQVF
Set-up: key: below the threshold = too weak to quantify, mostly under pKd 3.1 to 4

Binder	pKd
HYPASPDSWV [CTNND2, Q9UQB3]	below the threshold
LLQEEWETVM [PTH1R, Q03431]	below the threshold

Each binder was assayed against T5, DFNB31_3, Q9P202 (assay: holdup assay). Conditions: plain residues with an end cap or a label only (N-terminal biotin on a linker: ado-ado).
T5 sequence (Q9P202 811-907, limits assumed, looked up): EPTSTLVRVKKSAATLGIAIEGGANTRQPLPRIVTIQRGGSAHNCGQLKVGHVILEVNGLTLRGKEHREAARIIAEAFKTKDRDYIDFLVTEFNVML
Set-up: key: below the threshold = too weak to quantify, mostly under pKd 3.1 to 4

Binder	pKd
HYPASPDSWV [CTNND2, Q9UQB3]	below the threshold
LLQEEWETVM [PTH1R, Q03431]	4.17

The binders below were run against T6, GRIP1_3, Q9Y3R0 (assay: holdup assay). Conditions: plain residues with an end cap or a label only (N-terminal biotin on a linker: ado-ado).
T6 sequence (Q9Y3R0 247-346, limits assumed, looked up): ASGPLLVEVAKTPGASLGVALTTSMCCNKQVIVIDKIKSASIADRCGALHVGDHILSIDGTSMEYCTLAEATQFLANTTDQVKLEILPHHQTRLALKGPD
Set-up: key: below the threshold = too weak to quantify, mostly under pKd 3.1 to 4

Binder	pKd
HYPASPDSWV [CTNND2, Q9UQB3]	below the threshold
LLQEEWETVM [PTH1R, Q03431]	below the threshold

The binders below were run against DLG4_3, P78352 (assay: holdup assay). Conditions: plain residues with an end cap or a label only (N-terminal biotin on a linker: ado-ado).
DLG4_3, P78352, sequence (P78352 306-403): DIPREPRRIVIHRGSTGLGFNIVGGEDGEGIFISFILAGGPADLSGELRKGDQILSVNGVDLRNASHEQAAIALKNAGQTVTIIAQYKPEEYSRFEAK
Set-up: key: below the threshold = too weak to quantify, mostly under pKd 3.1 to 4

Binder	pKd
HYPASPDSWV [CTNND2, Q9UQB3]	below the threshold
LLQEEWETVM [PTH1R, Q03431]	below the threshold

Each binder was assayed against DLG4_2, P78352 (assay: holdup assay). Conditions: plain residues with an end cap or a label only (N-terminal biotin on a linker: ado-ado).
DLG4_2, P78352, sequence (P78352 155-259): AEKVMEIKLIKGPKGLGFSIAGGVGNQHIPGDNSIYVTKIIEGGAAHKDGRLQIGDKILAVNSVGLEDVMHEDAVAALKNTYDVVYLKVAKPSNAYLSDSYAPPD
Set-up: key: below the threshold = too weak to quantify, mostly under pKd 3.1 to 4

Binder	pKd
HYPASPDSWV [CTNND2, Q9UQB3]	4.72
LLQEEWETVM [PTH1R, Q03431]	below the threshold

These binders were tested against T7, SHANK1, Q9Y566 (assay: holdup assay). Conditions: plain residues with an end cap or a label only (N-terminal biotin on a linker: ado-ado).
T7 sequence (Q9Y566 658-767, limits assumed, looked up): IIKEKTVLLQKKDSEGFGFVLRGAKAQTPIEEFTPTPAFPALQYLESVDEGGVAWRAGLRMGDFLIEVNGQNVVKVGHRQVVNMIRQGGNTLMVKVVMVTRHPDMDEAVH
Set-up: key: below the threshold = too weak to quantify, mostly under pKd 3.1 to 4

Binder	pKd
HYPASPDSWV [CTNND2, Q9UQB3]	below the threshold
LLQEEWETVM [PTH1R, Q03431]	4.85

The binders below were run against T8, GRIP1_7, Q9Y3R0 (assay: holdup assay). Conditions: plain residues with an end cap or a label only (N-terminal biotin on a linker: ado-ado).
T8 sequence (Q9Y3R0 999-1096, limits assumed, looked up): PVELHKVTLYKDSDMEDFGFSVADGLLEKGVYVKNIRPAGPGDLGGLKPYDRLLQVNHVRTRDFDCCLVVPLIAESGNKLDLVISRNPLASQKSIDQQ
Set-up: key: below the threshold = too weak to quantify, mostly under pKd 3.1 to 4

Binder	pKd
HYPASPDSWV [CTNND2, Q9UQB3]	3.75
LLQEEWETVM [PTH1R, Q03431]	below the threshold

Each binder was assayed against T9, MPDZ_12, O75970 (assay: holdup assay). Conditions: plain residues with an end cap or a label only (N-terminal biotin on a linker: ado-ado).
T9 sequence (O75970 1857-1958, limits assumed, looked up): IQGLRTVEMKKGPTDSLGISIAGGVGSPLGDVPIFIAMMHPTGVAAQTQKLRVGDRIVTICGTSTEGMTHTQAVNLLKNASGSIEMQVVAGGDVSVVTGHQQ
Set-up: key: below the threshold = too weak to quantify, mostly under pKd 3.1 to 4

Binder	pKd
HYPASPDSWV [CTNND2, Q9UQB3]	4.65
LLQEEWETVM [PTH1R, Q03431]	below the threshold

What follows are binders tested against GRID2IP_2, A4D2P6 (assay: holdup assay). Conditions: plain residues with an end cap or a label only (N-terminal biotin on a linker: ado-ado).
GRID2IP_2, A4D2P6, sequence (A4D2P6 272-370): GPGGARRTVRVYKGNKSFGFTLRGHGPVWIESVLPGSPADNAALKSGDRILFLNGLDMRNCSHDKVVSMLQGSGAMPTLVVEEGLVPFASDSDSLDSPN
Set-up: key: below the threshold = too weak to quantify, mostly under pKd 3.1 to 4

Binder	pKd
HYPASPDSWV [CTNND2, Q9UQB3]	below the threshold
LLQEEWETVM [PTH1R, Q03431]	4.11

The binders below were run against T10, APBA1_2, Q02410 (assay: holdup assay). Conditions: plain residues with an end cap or a label only (N-terminal biotin on a linker: ado-ado).
T10 sequence (Q02410 742-832, limits assumed, looked up): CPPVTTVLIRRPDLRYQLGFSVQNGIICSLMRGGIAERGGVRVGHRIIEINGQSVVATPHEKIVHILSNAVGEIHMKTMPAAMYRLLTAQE
Set-up: key: below the threshold = too weak to quantify, mostly under pKd 3.1 to 4

Binder	pKd
HYPASPDSWV [CTNND2, Q9UQB3]	4.5
LLQEEWETVM [PTH1R, Q03431]	below the threshold

These binders were tested against MAGI1_1, Q96QZ7 (assay: holdup assay). Conditions: plain residues with an end cap or a label only (N-terminal biotin on a linker: ado-ado).
MAGI1_1, Q96QZ7, sequence (Q96QZ7 1-106): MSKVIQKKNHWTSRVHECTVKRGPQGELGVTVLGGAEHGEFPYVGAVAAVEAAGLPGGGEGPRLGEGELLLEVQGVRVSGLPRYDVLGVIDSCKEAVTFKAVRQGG
Set-up: key: below the threshold = too weak to quantify, mostly under pKd 3.1 to 4

Binder	pKd
HYPASPDSWV [CTNND2, Q9UQB3]	below the threshold
LLQEEWETVM [PTH1R, Q03431]	below the threshold

These binders were tested against DLG5_1, Q8TDM6 (assay: holdup assay). Conditions: plain residues with an end cap or a label only (N-terminal biotin on a linker: ado-ado).
DLG5_1, Q8TDM6, sequence (Q8TDM6 617-713): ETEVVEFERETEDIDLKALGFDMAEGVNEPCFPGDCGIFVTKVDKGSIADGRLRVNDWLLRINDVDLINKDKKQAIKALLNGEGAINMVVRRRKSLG
Set-up: key: below the threshold = too weak to quantify, mostly under pKd 3.1 to 4

Binder	pKd
HYPASPDSWV [CTNND2, Q9UQB3]	below the threshold
LLQEEWETVM [PTH1R, Q03431]	below the threshold

What follows are binders tested against T11, SYNJ2BP, P57105 (assay: holdup assay). Conditions: plain residues with an end cap or a label only (N-terminal biotin on a linker: ado-ado).
T11 sequence (P57105 8-110, limits assumed, looked up): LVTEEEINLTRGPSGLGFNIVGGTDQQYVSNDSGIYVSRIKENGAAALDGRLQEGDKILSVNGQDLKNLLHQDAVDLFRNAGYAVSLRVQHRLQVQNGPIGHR
Set-up: key: below the threshold = too weak to quantify, mostly under pKd 3.1 to 4

Binder	pKd
HYPASPDSWV [CTNND2, Q9UQB3]	5.07
LLQEEWETVM [PTH1R, Q03431]	below the threshold

Each binder was assayed against DLG1_1, Q12959 (assay: holdup assay). Conditions: plain residues with an end cap or a label only (N-terminal biotin on a linker: ado-ado).
Set-up: key: below the threshold = too weak to quantify, mostly under pKd 3.1 to 4

Binder	pKd
HYPASPDSWV [CTNND2, Q9UQB3]	4.07
LLQEEWETVM [PTH1R, Q03431]	below the threshold

These binders were tested against Inadl_8, Q8NI35 (assay: holdup assay). Conditions: plain residues with an end cap or a label only (N-terminal biotin on a linker: ado-ado).
Inadl_8, Q8NI35, sequence (Q8NI35 1425-1530): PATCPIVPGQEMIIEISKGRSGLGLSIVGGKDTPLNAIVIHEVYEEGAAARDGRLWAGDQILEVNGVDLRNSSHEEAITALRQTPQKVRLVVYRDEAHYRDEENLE
Set-up: key: below the threshold = too weak to quantify, mostly under pKd 3.1 to 4

Binder	pKd
HYPASPDSWV [CTNND2, Q9UQB3]	4.12
LLQEEWETVM [PTH1R, Q03431]	below the threshold

Each binder was assayed against MAGI1_2, Q96QZ7 (assay: holdup assay). Conditions: plain residues with an end cap or a label only (N-terminal biotin on a linker: ado-ado).
MAGI1_2, Q96QZ7, sequence (Q96QZ7 456-580): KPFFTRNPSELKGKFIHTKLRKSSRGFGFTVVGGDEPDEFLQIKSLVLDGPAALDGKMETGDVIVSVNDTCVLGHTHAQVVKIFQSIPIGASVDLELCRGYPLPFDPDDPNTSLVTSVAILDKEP
Set-up: key: below the threshold = too weak to quantify, mostly under pKd 3.1 to 4

Binder	pKd
HYPASPDSWV [CTNND2, Q9UQB3]	below the threshold
LLQEEWETVM [PTH1R, Q03431]	below the threshold

Each binder was assayed against T12, APBA3_1, O96018 (assay: holdup assay). Conditions: plain residues with an end cap or a label only (N-terminal biotin on a linker: ado-ado).
T12 sequence (O96018 389-490, limits assumed, looked up): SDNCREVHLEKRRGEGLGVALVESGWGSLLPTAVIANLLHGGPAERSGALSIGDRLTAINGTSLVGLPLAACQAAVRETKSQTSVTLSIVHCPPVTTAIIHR
Set-up: key: below the threshold = too weak to quantify, mostly under pKd 3.1 to 4

Binder	pKd
HYPASPDSWV [CTNND2, Q9UQB3]	below the threshold
LLQEEWETVM [PTH1R, Q03431]	below the threshold
